Target: PARP-1 F1+F2 (UniProt P09874 1-214)
Assay: pull-down

Chain of PARP-1 F1+F2 (P09874 1-214): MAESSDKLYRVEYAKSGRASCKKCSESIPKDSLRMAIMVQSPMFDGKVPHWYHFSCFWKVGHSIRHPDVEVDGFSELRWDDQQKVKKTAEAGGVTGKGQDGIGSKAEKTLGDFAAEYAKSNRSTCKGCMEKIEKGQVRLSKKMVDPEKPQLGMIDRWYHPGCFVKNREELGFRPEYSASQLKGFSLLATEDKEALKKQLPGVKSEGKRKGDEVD

B1: 15 bp duplex, biotinylated (dsDNA)
DNA 1: ACTGCGTTTATGTAT
DNA 2: ATACATAAACGCAGT
  binding result: binds

From article PMC3744807
